Measured values taken from patent publication US20230183339A1.

Target: FcRn
Assay: BIAcore at pH 6.0

Kd [nM] | Substance
1640 | wild-type irrelevant IgG1 (antibody)
3640 | wild-type irrelevant IgG4 (antibody)
